From publication PMC12747170 come the findings set out here.

In the assay the target is JEV-ED3 protein (domain III of the Japanese encephalitis virus envelope protein, aa 303-398, C-terminal His-tag) (Japanese encephalitis virus). As to the kind of experiment: BLI.

In turn, “recombinant Human EGFR Protein (ECD, hFc Tag) (from UniProt P00533 25-645) (Fc fusion)” displayed a Kd of 283 nM.

Broadly, the Kd is the constant that tells how readily two partners part at equilibrium. The low end stands for higher affinity, the high end for lower affinity.
